# Source: US20120289454
# Columns and labels:
# [1] = tested on: GGhyrfk-amide (synthetic); details: Cu complex; Vmax 2.86 RFU/min
# [2] = tested on: GGHYrFK-amide (synthetic); experiment: cleavage_in_vitro; details: Cu complex; KM 0.85 µM; turnover number 32; 1 mM ascorbate, 1 mM H2O2
# [3] = tested on: GGHYrFK-amide (synthetic)
sequence,measurement,setting,value
GGCAGAAAGCGUCUAGCCAUGGCGUUAGUAUGCC [HCV IRES SL IIb RNA],Kd,[1],6.09 µM
same,activity,[2],0.53 min-1 (kcat)
same,Kd,[3],44 nM
